The text below walks through data of patent publication US20250326840A1 (QURE BIOTECHNOLOGY SHANGHAI, published 2025).

Positions count from the first letter of the chain named. Names and notes keep the numbering of the source.

Assay [1] addresses PD-L1-mouse Fc protein (human, UniProt Q9NZQ7 19-239, limits assumed). The experiment in a line: blocking ELISA: QP1138 (PD1-FC) coated, PDL1-mouse FC mixed with the antibody, HRP anti-mouse IgG; blocked partner: PD-1; unit from the x axis Log(Conc.(nM)).
Assay [2] concerns the target QP003 (PDL1-his). In words: ELISA, QP003 (PDL1-his) captured on coated anti-his, anti-hFc detection; unit from the x axis Log(Conc.(nM)).
In assay [3] the target is T1, PD-L1-his (QPP09) (human, UniProt Q9NZQ7 19-239, limits assumed).
T1 construct: also called human PD-L1; human PD-L1 recombinant protein
T1 sequence (Q9NZQ7 19-239 limits assumed): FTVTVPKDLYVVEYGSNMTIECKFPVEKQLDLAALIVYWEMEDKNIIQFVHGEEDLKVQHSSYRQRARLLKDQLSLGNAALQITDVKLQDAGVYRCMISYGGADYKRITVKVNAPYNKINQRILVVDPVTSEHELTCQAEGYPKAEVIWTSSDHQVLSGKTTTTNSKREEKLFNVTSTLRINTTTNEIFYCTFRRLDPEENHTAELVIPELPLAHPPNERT
The experiment in a line: SPR, Biacore 8K.

Assay [4] deals with T2, QP094 (human SIRPα V1 ECD(E31-R370)-flag-his) (human, UniProt P78324 31-370).
T2 construct: the construct carries flag and his tags; also called SIRPαV1-flag-his; SIRPαV1-his (QP094)
The experiment in a line: SPR, Biacore T200.

Assay [5] concerns the target T3, QP096 (human SIRPα V2 ECD(E31-R370)-flag-his) (human).
T3 construct: the construct carries flag and his tags; also called SIRPαV2-Flag-his; Human SIRPα V2 (QP096)
In words: SPR, Biacore T200.

In assay [6] the target is T4, QP002 (biotinylated in the blocking assays, sites not given).
T4 construct: also called SIRPα-FC; Biotin-QP002
The experiment in a line: blocking ELISA: CD47 FC (QP001) coated, biotin SIRPα-FC (QP002) mixed with the antibody, HRP-streptavidin; blocked ligand: CD47; unit from the x axis Log(Conc.(nM)).

Assay [7] deals with T4, QP002. In words: blocking ELISA: QP001.2 (CD47) coated, biotin-QP002 (SIRPα-FC) mixed with the antibody, HRP-streptavidin; blocked ligand: CD47.
In assay [8] the target is T5, QP100 (cyno SIRPα (G7PGS8) ECD(E29-R368)-flag-his) (cynomolgus).
T5 construct: the construct carries flag and his tags; also called cynoSIRPα-flag-his; Cynomolgus SIRPα (QP100)
T5 chain: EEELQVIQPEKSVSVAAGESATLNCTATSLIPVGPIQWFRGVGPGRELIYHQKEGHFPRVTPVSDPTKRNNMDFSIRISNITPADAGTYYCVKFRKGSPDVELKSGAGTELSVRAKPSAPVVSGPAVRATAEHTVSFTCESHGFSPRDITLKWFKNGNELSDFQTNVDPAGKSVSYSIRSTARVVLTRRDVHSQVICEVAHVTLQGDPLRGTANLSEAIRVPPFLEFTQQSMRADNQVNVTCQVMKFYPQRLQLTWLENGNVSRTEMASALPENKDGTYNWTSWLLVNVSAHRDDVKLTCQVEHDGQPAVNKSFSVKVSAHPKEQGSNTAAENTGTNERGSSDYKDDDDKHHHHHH
In words: binding ELISA, antigen coated.

Assay [9] has as its target T6, QP273 (cynoSIRPα2-flag-his T-557-14) (cynomolgus).
T6 construct: also called cynomolgus SIRPα (QP273)
T6 chain: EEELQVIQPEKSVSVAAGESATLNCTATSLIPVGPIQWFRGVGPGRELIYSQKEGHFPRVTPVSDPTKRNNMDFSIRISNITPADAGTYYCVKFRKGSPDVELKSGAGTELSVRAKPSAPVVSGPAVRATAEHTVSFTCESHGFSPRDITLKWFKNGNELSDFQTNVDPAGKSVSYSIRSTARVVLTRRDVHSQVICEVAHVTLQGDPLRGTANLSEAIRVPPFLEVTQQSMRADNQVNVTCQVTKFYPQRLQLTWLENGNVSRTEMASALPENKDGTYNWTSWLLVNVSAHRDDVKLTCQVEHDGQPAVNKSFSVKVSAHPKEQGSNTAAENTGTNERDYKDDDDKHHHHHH
The experiment in a line: binding ELISA, antigen coated.

In assay [10] the target is T2, QP094 (human SIRPα V1 …). The experiment in a line: binding ELISA, antigen coated.
Assay [11] addresses T7, QP098 (cyno SIRPα (I7G9Z7) ECD(E31-R369)-flag-his) (cynomolgus).
T7 construct: the construct carries flag and his tags; also called cynoSIRPα (ECD); cynomolgus SIRPα
T7 chain: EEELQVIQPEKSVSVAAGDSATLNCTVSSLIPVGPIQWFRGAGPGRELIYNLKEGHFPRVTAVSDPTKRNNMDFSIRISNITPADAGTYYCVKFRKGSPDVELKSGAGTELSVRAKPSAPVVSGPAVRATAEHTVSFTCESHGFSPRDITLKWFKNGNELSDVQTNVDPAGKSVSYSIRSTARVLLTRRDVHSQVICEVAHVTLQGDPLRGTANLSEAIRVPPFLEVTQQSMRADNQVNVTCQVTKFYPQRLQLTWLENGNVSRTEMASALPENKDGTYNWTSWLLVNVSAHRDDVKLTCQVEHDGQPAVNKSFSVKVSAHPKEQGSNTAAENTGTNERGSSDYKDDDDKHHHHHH
The experiment in a line: binding ELISA, antigen coated.

Assay [12] addresses T8, QP271 (rhesus SIRPα1-flag-his T-557-28) (rhesus monkey).
T8 construct: also called rhesus monkey SIRPα (QP271); monkeySIRPα1-flag-his
T8 chain: T6 chain with E19D, A27V, V42A, S51H, P62S, D65E, P66S, R77H, L103V
The experiment in a line: binding ELISA, antigen coated.

Assay [13] has as its target T3, QP096 (human SIRPα V2 …). The experiment in a line: binding ELISA, antigen coated.
For assay [14], the target named is T6, QP273 (cynoSIRPα2-flag-his T-557-14). The experiment in a line: SPR, Biacore.
Assay [15] concerns the target T2, QP094 (human SIRPα V1 …). In words: SPR, Biacore.
Assay [16] has as its target T7, QP098 (cyno SIRPα (I7G9Z7) …). In words: SPR, Biacore.
Assay [17] has as its target T8, QP271 (rhesus SIRPα1-flag-his T-557-28). In words: SPR, Biacore.
Assay [18] deals with T3, QP096 (human SIRPα V2 …). In words: SPR, Biacore.
Assay [19] concerns the target T5, QP100 (cyno SIRPα (G7PGS8) …). In words: SPR, Biacore.
Assay [20] addresses T2, QP094 (human SIRPα V1 …). The experiment in a line: SPR, Biacore. This is another data set of the same source.
For assay [21], the target named is T3, QP096 (human SIRPα V2 …). In words: SPR, Biacore. The source holds these as a separate data set.

PD-L1-mouse Fc protein, sequence (Q9NZQ7 19-239 limits assumed): as the sequence (Q9NZQ7 19-239 limits assumed) above
QP003 (PDL1-his), sequence (chain, as listed by the source limits assumed): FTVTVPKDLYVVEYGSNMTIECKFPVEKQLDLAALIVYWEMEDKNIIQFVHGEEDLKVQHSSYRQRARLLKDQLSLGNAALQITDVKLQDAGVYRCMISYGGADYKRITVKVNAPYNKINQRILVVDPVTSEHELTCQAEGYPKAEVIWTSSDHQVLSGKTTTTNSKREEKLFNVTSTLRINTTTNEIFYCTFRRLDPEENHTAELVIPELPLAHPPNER

B1: QP32700625 (bispecific antibody, human IgG1, kappa, L234A L235A)
heavy: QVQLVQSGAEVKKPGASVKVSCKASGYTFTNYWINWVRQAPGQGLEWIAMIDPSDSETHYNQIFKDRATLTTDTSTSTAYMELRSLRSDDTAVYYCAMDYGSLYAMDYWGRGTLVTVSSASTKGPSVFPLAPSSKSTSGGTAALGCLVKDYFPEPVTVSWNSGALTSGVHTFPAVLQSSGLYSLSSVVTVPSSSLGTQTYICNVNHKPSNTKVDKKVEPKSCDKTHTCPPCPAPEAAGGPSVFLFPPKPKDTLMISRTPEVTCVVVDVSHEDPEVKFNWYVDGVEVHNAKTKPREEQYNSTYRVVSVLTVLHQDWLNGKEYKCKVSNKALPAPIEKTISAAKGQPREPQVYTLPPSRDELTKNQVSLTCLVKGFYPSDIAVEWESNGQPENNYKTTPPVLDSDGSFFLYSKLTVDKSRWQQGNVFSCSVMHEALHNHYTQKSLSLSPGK
light: EVQLLESGGGLVQPGGSLRLSCAASGFTLDDYAIGWFRQAPGKGREGVSCISKSGETTFFVESVKDRFTISRDNSKNTLYLQMNSLRAEDTAVYYCATGSWCTVGSMSRQFYRQFFHSWGQGTLVTVSSGGGGSGGGGSGGGGSDIVLTQSPDSLAVSLGERATINCRASQSVRSSGYNWIFWYQQKPGQPPKLLIYLASNRDSGVPDRFSGSGSGTDFTLTISSLQAEDVAVYYCQHSRELPTFGQGTKLEIKRTVAAPSVFIFPPSDEQLKSGTASVVCLLNNFYPREAKVQWKVDNALQSGNSQESVTEQDSKDSTYSLSSTLTLSKADYEKHKVYACEVTHQGLSSPVTKSFNRGEC
notes: Anti-PD-L1 VHH-(G4S)3 fused to the N-terminus of the light chain
Molecule B1 had an IC50 in [1] of 0.59 nM. Further, a half-maximal effect in [2] (EC50) was put at 0.0133 nM. Besides, in [3], the Kd is 1.29 nM, the koff stood at 0.00103 s⁻¹ and the kon was determined as 801000 M⁻¹ s⁻¹.

B2: QP026027 (antibody, human IgG1, kappa)
heavy: not shown
light: QIVLTQSPAIMSASPGEKVTLTCSASSSVSSSYLYWYQQKPGSSPKLWIYSTSNLASGVPARFSGSGSGTSYSLTISSMEAEDAASYFCHQWSSYPRTFGAGTKLELKRTVAAPSVFIFPPSDEQLKSGTASVVCLLNNFYPREAKVQWKVDNALQSGNSQESVTEQDSKDSTYSLSSTLTLSKADYEKHKVYACEVTHQGLSSPVTKSFNRGEC
notes: also called KWAR23 (QP026027); control antibody KWAR23, human IgG1
Turning to B2, in assay [4], the Kd was 5.12 nM, the koff is 0.00465 s⁻¹ and the kon came out at 908000 M⁻¹ s⁻¹. In [5], this molecule came in with a Kd of 12.3 nM, a koff of 0.0246 s⁻¹ and a kon of 2.01e+06 M⁻¹ s⁻¹. The IC50 in assay [6] amounted to 0.295 nM.

B3: QP32700624 (bispecific antibody, human IgG1, kappa, L234A L235A)
heavy: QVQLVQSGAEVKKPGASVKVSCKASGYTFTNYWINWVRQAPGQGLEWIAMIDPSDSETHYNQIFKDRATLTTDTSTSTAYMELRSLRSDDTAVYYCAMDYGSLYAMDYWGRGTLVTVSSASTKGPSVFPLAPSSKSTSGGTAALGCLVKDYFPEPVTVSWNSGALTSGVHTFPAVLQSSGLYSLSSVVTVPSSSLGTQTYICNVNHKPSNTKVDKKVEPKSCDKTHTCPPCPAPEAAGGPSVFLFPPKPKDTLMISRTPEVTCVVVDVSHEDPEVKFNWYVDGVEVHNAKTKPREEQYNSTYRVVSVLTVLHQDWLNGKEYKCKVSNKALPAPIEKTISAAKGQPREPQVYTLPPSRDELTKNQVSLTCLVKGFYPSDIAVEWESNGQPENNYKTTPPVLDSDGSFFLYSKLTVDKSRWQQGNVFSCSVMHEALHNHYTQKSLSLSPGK
light: EVQLLESGGGLVQPGGSLRLSCAASGFTLDDYAIGWFRQAPGKGREGVSCISKSGETTFFVESVKDRFTISRDNSKNTLYLQMNSLRAEDTAVYYCATGSWCTVGSMSRQFYRQFFHSWGQGTLVTVSSGGGGSGGGGSDIVLTQSPDSLAVSLGERATINCRASQSVRSSGYNWIFWYQQKPGQPPKLLIYLASNRDSGVPDRFSGSGSGTDFTLTISSLQAEDVAVYYCQHSRELPTFGQGTKLEIKRTVAAPSVFIFPPSDEQLKSGTASVVCLLNNFYPREAKVQWKVDNALQSGNSQESVTEQDSKDSTYSLSSTLTLSKADYEKHKVYACEVTHQGLSSPVTKSFNRGEC
notes: Anti-PD-L1 VHH-(G4S)2 fused to the N-terminus of the light chain
In assay [1], B3 had an IC50 of 0.663 nM. In addition, the EC50 in assay [2] was found to be 0.0134 nM. Besides, in [3], the Kd worked out at 1.64 nM, the koff came to 0.00122 s⁻¹ and the kon was 744000 M⁻¹ s⁻¹.

B4: QP256253 (antibody, human IgG4, V domains shown)
VH: QVQLVQSGAEVKKPGASVKVSCKASGYTFTNYWINWVRQAPGQGLEWIAMIDPSDSETHYNQIFKDRATLTTDTSTSTAYMELRSLRSDDTAVYYCAMDYGSLYAMDYWGRGTLVTVSS
VL: DIVLTQSPDSLAVSLGERATINCRASKSVSSSGYNYIFWYQQKPGQPPKLLIYLASNLDSGVPDRFSGSGSGTDFTLTISSLQAEDVAVYYCQHSRELPTFGQGTKLEIK
notes: also called humanized antibody QP256253; QP163164 humanized clone
Take B4: the “IC50 (read off the curve)” value in assay [7] is around 20 ng/mL. Also, the EC50 in assay [8] came out at 1.72 ng/mL; in [9], 1.51 ng/mL; in assay [10], 1.19 ng/mL; in [11], 1.26 ng/mL; in assay [12], 0.947 ng/mL; in assay [13], 1.19 ng/mL. In addition, the Kd in [14] is 12.7 nM; in [15], 0.26 nM; in assay [16], 26.8 nM; in [17], 7.97 nM; in [18], 0.276 nM; in assay [19], 77.9 nM. The Kd in [20] was found to be 0.336 nM; in [21], 0.319 nM. The koff stood at 0.196 s⁻¹ in assay [19], 0.00079 s⁻¹ in [20] and 0.00109 s⁻¹ in [21]. Also, the kon is 2.52e+06 M⁻¹ s⁻¹ in assay [19], 2.35e+06 M⁻¹ s⁻¹ in assay [20] and 3.42e+06 M⁻¹ s⁻¹ in [21].

B5: QP2561586 (antibody, human IgG4, V domains shown)
VH: B4 VH
VL: B4 VL with H94E
notes: Human IgG4 heavy constant region and kappa CL
With B5, the “IC50 (read off the curve)” value in [7] was around 20 ng/mL. Further, the EC50 in assay [8] worked out at 1.23 ng/mL; in assay [9], 1.03 ng/mL; in [10], 1.05 ng/mL; in [11], 1.2 ng/mL; in assay [12], 0.967 ng/mL; in assay [13] it was 1.11 ng/mL. The Kd was determined as 2.22 nM in assay [14]; 0.0597 nM in assay [15]; 4.22 nM in assay [16]; 1.74 nM in [17]; 0.0891 nM in assay [18].

B6: QP2561589 (antibody, human IgG4, V domains shown)
VH: B4 VH
VL: B4 VL with H94E, R96W
notes: as for B5
As to B6, the “IC50 (read off the curve)” value in assay [7] is around 20 ng/mL. Moreover, the EC50 in assay [8] amounted to 2.01 ng/mL; in assay [9] it was 1.43 ng/mL; in [10], 1.37 ng/mL; in [11], 1.6 ng/mL; in assay [12] it was 0.936 ng/mL; in assay [13], 1.17 ng/mL. The Kd in assay [14] worked out at 3.2 nM; in [15], 0.085 nM; in [16], 6.03 nM; in assay [17] it was 2.41 nM; in [18], 0.0392 nM.
